Data reported in US20250388633A1.

Molecular target: growth factor receptors
Experiment: cell-based or functional assay

Binder | p-Smad1/5/8 (%) (quantification of western blots of phospho-smad1/5/8)
SSVKSQPSRVHHSPISILFI [SEQ ID NO: 57] | 41
SIPKASSTPTELSPINMLYF [SEQ ID NO: 54] | 32
ASASPSSVSQDLSSLSILFF [SEQ ID NO: 58] | 37
VVPKPSSAPTQLEPISILYL [SEQ ID NO: 59] | 29
SSVKSQPSRVHHKPLSMLYV [SEQ ID NO: 62] | 31
NDEGLESVPTEERSVKVAKV [SEQ ID NO: 63] | 34
NDEGLESVPTEESAISMLYL [SEQ ID NO: 56] | 28
